One block for each binder: values may come before it.
Tests used:
IL-4R on HEK-Blue cells [1] = target: T1, IL-4R on HEK-Blue cells (human, UniProt P24394 26-825); test: cell-based or functional assay
IL-4R on HEK-Blue cells [2] = target: T1, IL-4R on HEK-Blue cells; test: cell-based or functional assay; remark: listed apart in the source
[3] = target: T2, recombinant cynomolgus monkey IL-4R (ECD with His-tag, Acro Biosystems) (cynomolgus monkey, UniProt A0A2K5V556 26-232); test: SPR (Biacore T200), Morrison antibody captured via anti-human IgG-Fc, cynomolgus IL-4R ECD-His as analyte, 1:1 model
T2 construct: analyte in the SPR of the Morrison-H antibodies; also called cynomolgus IL-4R
Experimental: (§1) In this SPR experiment, Morrison molecules were captured via an anti-human IgG-Fc antibody (Human Antibody Capture Kit; Biacore, Cytiva) covalently immobilized to a carboxylmethylated dextran surface (CM5 sensorchip; Biacore, Cytiva) and a titration series of human IL-4R ECD was injected as analyte. After each analyte injection cycle, the sensor chip was regenerated (MgCl₂), and new Morrison antibody was subsequently re-captured. […] The apparent dissociation (kd) and association (kₐ) rate constants and the apparent dissociation equilibrium constant (KD) were calculated with the Biacore analysis software (Biacore Evaluation software Version 3.2, Cytiva) using one-to-one Langmuir binding model and quality of the fits was monitored based on Chi2 and U-value, which are measures for the quality of the curve fitting. The binding level was calculated as the maximum stability binding achieved normalized to the theoretical Rmax. Cross-reactivity to cynomolgus monkey IL-4R was measured using the same setup as for the analysis of human IL-4R kinetics, with the difference that recombinant cynomolgus monkey IL-4R (ECD with His-tag, Acro Biosystems) protein was used as analyte instead of human IL-4R.

[4] = target: T3, recombinant human IL-4R protein (ECD with His Tag, Sino Biological) (human, UniProt P24394 26-232); test: SPR (Biacore T200), Morrison antibody captured via anti-human IgG-Fc, human IL-4R ECD-His as analyte 0.175 to 45 nM, 1:1 model
T3 construct: extracellular domain; analyte in the SPR of the Morrison-H antibodies; also called human IL-4R ECD; not shown: His tag
Experimental: as §1

IL-4R on HEK-Blue cells [5] = target: T1, IL-4R on HEK-Blue cells; test: cell-based or functional assay; remark: listed apart in the source
cynomolgus IL-4R-Fc = target: T4, cynomolgus IL-4R-Fc (cynomolgus monkey (Macaca fascicularis), UniProt A0A2K5V580 33-239); test: SPR, capture setup: cynomolgus IL-4R-Fc captured, scFv as analyte
T4 construct: also called cynomolgus IL-4R (capture setup); not shown: Fc part
Experimental: (§2) Affinity of the 16 humanized scFvs (derived from 5 rabbit monoclonal antibodies) to human IL-4R was determined by SPR analysis on a T200 device (Biacore, GE Healthcare). Human IL-4R-Fc was captured via an anti-human IgG-Fc coupled to a carboxylmethylated dextran surface and the scFvs were injected as analyte. After each analyte injection cycle the sensor chip was regenerated and new antigen was captured. The scFvs were measured using a dose response multi-cycle kinetic assay with seven analyte concentrations ranging from 0.12 to 90 nM diluted in running buffer. Obtained sensorgrams were fitted using a 1:1 binding model.
(§3) Cross-reactivity to cynomolgus IL-4R was measured using the same setup as for the analysis of human IL-4R affinities, with the difference that cynomolgus IL-4R-Fc was captured instead of human IL-4R-Fc. To determine affinities for marmoset IL-4R, a direct setup was used since only extracellular domain (ECD) of marmoset IL-4R was available. Marmoset ECD was immobilized directly onto the sensor chip and a titration series of scFvs was injected as analyte. To allow for comparison between KD values obtained for cynomolgus and marmoset IL-4R, affinities to cynomolgus IL-4R ECD were also determined using a direct setup.

Marmoset IL-4R ECD = target: T5, Marmoset IL-4R ECD (marmoset (Callithrix jacchus), UniProt Q0PIT7 26-232); test: SPR, direct setup: marmoset IL-4R ECD immobilized, scFv as analyte
T5 construct: also called marmoset monkey IL-4R
Experimental: as §3

cynomolgus IL-4R ECD = target: T6, cynomolgus IL-4R ECD (cynomolgus monkey (Macaca fascicularis), UniProt A0A2K5V556 26-232); test: SPR, direct setup: cynomolgus IL-4R ECD immobilized, scFv as analyte
T6 construct: immobilized directly on the sensor chip; also called cynomolgus IL-4R (direct setup)
Experimental: as §3

Biotinylated IL-4R = target: T7, Biotinylated IL-4R (human, UniProt P24394 26-232, limits assumed, biotinylated); test: competitive ELISA: IL-4 coated, biotinylated IL-4R preincubated with scFv
T7 construct: also called human IL-4R; hIL-4R
Description: Bound biotinylated IL-4R was then detected using streptavidin-HRP.
Potency of humanized scFvs was further determined using a competitive ELISA.

Human IL-4R-Fc = target: T8, Human IL-4R-Fc (human, UniProt P24394 26-232); test: SPR (Biacore T200), human IL-4R-Fc captured via anti-human IgG-Fc, scFv as analyte, 1:1 model
T8 construct: not shown: Fc part (captured via anti-human IgG-Fc)
Experimental: as §2

Mean IC50, neutralization of human IL-4-induced signaling in the stat-6 reporter gene assay (IL-4R on HEK-Blue cells [1]): 0.0239 nM | Mean rel. IC50 [IC50 dupilumab/IC50 sample], human IL-4-induced signaling (IL-4R on HEK-Blue cells [1]): 0.42 ratio | Retained IC50 with and without IL-31 excess (n = 1) [IC50, no IL-31/IC50, with IL-31] (IL-4R on HEK-Blue cells [1]): 0.71 ratio | Mean IC50, neutralization of human IL-13 induced signaling in the stat-6 reporter gene assay (IL-4R on HEK-Blue cells [2]): 0.0221 nM | Mean rel. IC50 [IC50 dupilumab/IC50 sample], human IL-13 induced signaling (IL-4R on HEK-Blue cells [2]): 0.42 ratio | Kd [3]: 0.144 nM | koff [3]: 4.9e-05 s⁻¹ | kon [3]: 370000 M⁻¹ s⁻¹ | Kd [4]: 0.291 nM | koff [4]: 0.000101 s⁻¹ | kon [4]: 352000 M⁻¹ s⁻¹
B1: PRO2198 (bispecific antibody, human IgG4 S228P, kappa)
light: DIQMTQSPSSLSARVGDRVTITCQASEDIESYLAWYQQKPGKAPKLLIYRASTLAYGVPSRFSGSGSGRDFTLTISSLQPEDFATYYCLGSSYSTGSNIFGQGTKVEIKRTVAAPSVFIFPPSDEQLKSGTASVVCLLNNFYPREAKVQWKVDNALQSGNSQESVTEQDSKDSTYSLSSTLTLSKADYEKHKVYACEVTHQGLSSPVTKSFNRGEC
heavy: not shown
notes: IgG4 (S228P) Morrison-H, IgG4-(scFv)2: Fab arms 44-34-C10-sc08 (anti-IL-4R), anti-IL-31 scFv 50-09-D07-sc04 fused to the C-terminus of the heavy chain; also called Morrison-H antibody PRO2198; anti-IL-4RxIL-31 bispecific antibody

Mean IC50, neutralization of human IL-4-induced signaling in the stat-6 reporter gene assay (IL-4R on HEK-Blue cells [1]): 0.0115 nM | Mean rel. IC50 [IC50 dupilumab/IC50 sample], human IL-4-induced signaling (IL-4R on HEK-Blue cells [1]): 0.72 ratio | Retained IC50 with and without IL-31 excess (n = 1) [IC50, no IL-31/IC50, with IL-31] (IL-4R on HEK-Blue cells [1]): 1.25 ratio | Mean IC50, neutralization of human IL-13 induced signaling in the stat-6 reporter gene assay (single analysis) (IL-4R on HEK-Blue cells [2]): 0.0113 nM | Mean rel. IC50 [IC50 dupilumab/IC50 sample], human IL-13 induced signaling (single analysis) (IL-4R on HEK-Blue cells [2]): 0.69 ratio | Kd [3]: 0.0351 nM | koff [3]: 3.44e-05 s⁻¹ | kon [3]: 980000 M⁻¹ s⁻¹ | Kd [4]: 0.197 nM | koff [4]: 5.76e-05 s⁻¹ | kon [4]: 293000 M⁻¹ s⁻¹
B2: PRO2199 (bispecific antibody, human IgG4 S228P, kappa)
light: DIQMTQSPSSLSASVGDRVTITCQASEDIESYLAWYQQKPGKAPKLLIYRASTLAYGVPSRFSGSGSGTDFTLTISSLQPEDFATYYCLGSSYSTGSNIFGQGTKVEIKRTVAAPSVFIFPPSDEQLKSGTASVVCLLNNFYPREAKVQWKVDNALQSGNSQESVTEQDSKDSTYSLSSTLTLSKADYEKHKVYACEVTHQGLSSPVTKSFNRGEC
heavy: not shown
notes: IgG4 (S228P) Morrison-H, IgG4-(scFv)2: Fab arms 44-34-C10-sc09 (anti-IL-4R), anti-IL-31 scFv 50-09-D07-sc04 fused to the C-terminus of the heavy chain; also called Morrison-H antibody PRO2199; anti-IL-4RxIL-31 bispecific antibody

IC50, neutralization of hIL-4-induced signaling in reporter gene assay (IL-4R on HEK-Blue cells [5]): 1.44 ng/mL | IC50, neutralization of hIL-13-induced signaling in reporter gene assay (IL-4R on HEK-Blue cells [5]): 1.83 ng/mL | rel. IC50 (IC50, dupilumab/IC50, test sample), hIL-4-induced signaling (IL-4R on HEK-Blue cells [5]): 0.39 ratio | rel. IC50 (IC50, dupilumab/IC50, test sample), hIL-13-induced signaling (IL-4R on HEK-Blue cells [5]): 0.57 ratio | Kd (cynomolgus IL-4R-Fc): 0.0946 nM | koff (cynomolgus IL-4R-Fc): 0.000182 s⁻¹ | kon (cynomolgus IL-4R-Fc): 1.92e+06 M⁻¹ s⁻¹ | Kd (Marmoset IL-4R ECD): 0.392 nM | koff (Marmoset IL-4R ECD): 0.00105 s⁻¹ | kon (Marmoset IL-4R ECD): 2.67e+06 M⁻¹ s⁻¹ | Kd (cynomolgus IL-4R ECD): 0.681 nM | koff (cynomolgus IL-4R ECD): 0.000404 s⁻¹ | kon (cynomolgus IL-4R ECD): 594000 M⁻¹ s⁻¹ | IC50 (Biotinylated IL-4R): 0.54 ng/mL | rel. IC50 (IC50, dupilumab/IC50, test sample) (Biotinylated IL-4R): 3.46 ratio | Kd (Human IL-4R-Fc): 0.0055 nM | koff (Human IL-4R-Fc): 1.95e-05 s⁻¹ | kon (Human IL-4R-Fc): 3.55e+06 M⁻¹ s⁻¹
B3: PRO1517 (scFv)
scFv: DIQMTQSPSSLSASVGDRVTITCQASEDIESYLAWYQQKPGKAPKLLIYRASTLAYGVPSRFSGSGSGTDFTLTISSLQPEDFATYYCLGSSYSTGSNIFGTGTKVTVLGGGGGSGGGGSGGGGSGGGGSEVQLVESGGGLVQPGGSLRLSCAASGFSSSSAHYMCWVRQAPGKGLEWIGCIYAGSRGSTYYASWAKGRFTISRDNSKNTVYLQMNSLRAEDTAVYYCARAAFVNRGVSWIWPYYFSLWGQGTLVTVSS
notes: humanized scFv (VL-linker-VH), CDR graft of rabbit clone 44-34-C10; also called 44-34-C10-sc01; 44-34-C10 sc01
